Experimental data reported in patent publication US20220153864A1 (Pieris, published 2022).

How the values were obtained:
[1] = biological target: T1, human GPC3 expressed on cells (SK-Hep1::huGPC3; HepG2, Hep3B and MKN-45 tumor cells) (human, UniProt P51654 25-554); assay: flow cytometry on MKN-45 tumor cells (GPC3 moderate)
T1 construct: whole, on cells; also called GPC3-positive tumor cells; human GPC3-expressing cells
Description: 5×10⁴ cells per well were incubated for 1 h in ice-cold PBS containing 5% fetal calf serum (PBS-FCS). A dilution series of the testing molecule were added to the cells and incubated for 1 h on ice. Cells were washed twice with PBS and then incubated with a goat anti-hlgG Alexa647-labeled antibody or goat anti-hlgG Alexa488-labeled antibody for 30 min on ice. Cells were subsequently washed and analyzed using iQue Flow cytometer (Intellicyte Screener). Mean geometric fluorescent signals were plotted and fitted with Graphpad software. The geometric means of the fluorescence intensity were used to calculate EC₅₀ values using a four-parameter logistic regression with bottom fixed to background.
For flow cytometric analysis, tumor cell lines with different GPC3 expression levels (high to moderate expression: HepG2>Hep3B>MKN-45) and GPC3 negative cell line NCI-N87 were incubated with an exemplary fusion protein SEQ ID NOs: 87 and 82, the GPC3 antibody or the CD137 specific lipocalin mutein (Fc fusion) as included in the fusion protein (SEQ ID NOs: 81 and 82 and SEQ ID NO: 98, respectively), a reference CD137 antibody SEQ ID NOs: 26 and 27, or an isotype control (SEQ ID NO: 24 and 25), and detected using a fluorescently labeled anti-human IgG antibody as described in Example 6.

[2] = biological target: T2, recombinant human GPC3 (huGPC3) (R&D Systems) (human, UniProt P51654 25-559); assay: dual-binding ELISA: huGPC3 coated, fusion titrated, detection with biotinylated huCD137-His
T2 construct: also called biotinylated huGPC3
Description: Recombinant huCD137-His (R&D Systems) in PBS (1 μg/mL) was coated overnight on microtiter plates at 4° C. The plates were washed five times after each incubation step with 100 μL PBS-0.05% T. The plates were blocked with PBS-0.1% T-2% BSA for 1 h at room temperature and subsequently washed again. Different concentrations of tested fusion proteins were added to the wells and incubated for 1 h at room temperature, followed by a wash step. Subsequently, biotinylated huGPC3 was added at a constant concentration of 1 μg/mL in PBS-0.1% T-2% BSA for 1 h. After washing, a 1:5000 dilution of ExtrAvidin-HRP (Sigma-Aldrich) in PBS-0.1% T-2% BSA was added to the wells and incubated for 1 h. After an additional wash step, fluorogenic HRP substrate (QuantaBlu, Thermo) was added to each well, and the fluorescence intensity was detected using a fluorescence microplate reader.
The dual binding of fusion proteins was also tested with a reverse set-up where recombinant huGPC3 (R&D Systems) was coated on microtiter plates at 1 μg/ml and the bound fusion proteins were detected via the addition of 5 μg/mL biotinylated huCD137-His.
Exemplary dual binding data are shown in FIG. 3, together with the fit curves resulting from a 1:1 sigmoidal binding fit, where the EC₅₀ value and the maximum signal were free parameters, and the slope was fixed to unity.

[3] = biological target: T3, huCD137-His (recombinant human CD137 with C-terminal polyhistidine tag, R&D Systems) (human, UniProt Q07011 24-186); assay: ELISA, huCD137-His coated, detection anti-NGAL-HRP
T3 construct: also called biotinylated huCD137-His; not shown: C-terminal polyhistidine tag
Description: Recombinant huGPC3 (R&D Systems) at the concentration of 1 μg/mL in PBS was coated overnight on microtiter plates at 4° C. After five washes with 100 μL PBS-0.05% T (PBS supplemented with 0.05% (v/v) Tween 20), the plates were blocked with 2% BSA (w/v) in PBS-0.1% T (PBS-0.1% T-2% BSA) for 1 h at room temperature. After washing with 100 μL PBS-0.05% T (PBS supplemented with 0.05% (v/v) Tween 20) five times, exemplary fusion proteins (SEQ ID NOs: 87 and […] and CD137Ac1-Fusion 1 to 7) or the GPC3 antibody as include in the fusion proteins (SEQ ID NOs: 81 and 82) at different concentrations were added to the wells and incubated for 1 h at room temperature, followed by another wash step. Bound molecules under study were detected by incubation with 1:5000 diluted anti-human IgG Fc-HRP (Jackson Laboratory) in PBS-0.1% T-2% BSA. After an additional wash step, fluorogenic HRP substrate (QuantaBlu, Thermo) was added to each well and the fluorescence intensity was detected using a fluorescence microplate reader.
The same ELISA setup was also employed to determine the binding potency of fusion proteins to cynomolgus GPC3 and huCD137, where recombinant cyGPC3 (R&D Systems) or huCD137-His (recombinant human CD137 with C-terminal polyhistidine tag, R&D Systems) was instead coated on a microtiter plate. The testing agents were similarly titrated and bound agents were detected via anti-NGAL-HRP. […]

[4] = biological target: T2, recombinant human GPC3 (huGPC3) (R&D …); assay: SPR (Biacore T200), binder captured by anti-human IgG Fc, huGPC3 as analyte, 1:1 model
Description: The anti-human IgG Fc antibody (GE Healthcare) was immobilized on a CM5 sensor chip using standard amine chemistry: the carboxyl groups on the chip were activated using 1-ethyl-3-(3-dimethylaminopropyl)-carbodiimide (EDC) and N-hydroxysuccinimide (NHS). Subsequently, anti-human IgG Fc antibody solution (GE Healthcare) at a concentration of 25 μg/mL in 10 mM sodium acetate (pH 5.0) was applied at a flow rate of 5 μL/min until an immobilization level of 6000-10000 resonance units (RU) was achieved. Residual non-reacted NHS-esters were blocked by passing a solution of 1M ethanolamine across the surface. The reference channel was treated in an analogous manner. Subsequently, testing fusion proteins (SEQ ID NOs: 87 and 82 and CD137Ac1-Fusion 1) or the GPC3 antibody as included in the fusion protein (SEQ ID NOs: 81 and 82) at 0.2 μg/ml in HBS-EP+ buffer was captured by the anti-human IgG-Fc antibody at the chip surface for 180 s at a flow rate of 10 μL/min. After each capture step, the needle was washed.
The binding assay was carried out with a contact time of 180 s, a dissociation time of 900 s, and a flow rate of 30 μL/min. After each injection, the needle was cleaned with 40 mM NaOH+20% isopropanol. All measurements were performed at 25° C. […] Prior to the protein measurements, three startup cycles were performed for conditioning purposes. Data were evaluated with Biacore T200 Evaluation software (v2.0). Double referencing was used and the 1:1 binding model was used to fit the raw data.

T2 sequence (P51654 25-559 limits assumed): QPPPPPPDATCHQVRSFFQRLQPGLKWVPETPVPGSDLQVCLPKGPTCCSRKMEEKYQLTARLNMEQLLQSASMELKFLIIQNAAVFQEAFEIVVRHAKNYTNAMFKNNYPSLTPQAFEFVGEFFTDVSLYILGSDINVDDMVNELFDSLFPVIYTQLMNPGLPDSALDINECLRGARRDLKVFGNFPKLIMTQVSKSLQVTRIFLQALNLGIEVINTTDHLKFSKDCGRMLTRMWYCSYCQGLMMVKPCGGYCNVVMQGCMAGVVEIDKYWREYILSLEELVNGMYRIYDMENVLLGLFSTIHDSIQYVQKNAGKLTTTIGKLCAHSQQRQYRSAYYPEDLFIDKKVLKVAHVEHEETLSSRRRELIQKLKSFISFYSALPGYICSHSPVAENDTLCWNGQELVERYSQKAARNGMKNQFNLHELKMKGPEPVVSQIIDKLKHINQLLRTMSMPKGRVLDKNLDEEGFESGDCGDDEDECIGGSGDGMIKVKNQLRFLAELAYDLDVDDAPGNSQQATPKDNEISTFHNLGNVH
T1 sequence (P51654 25-554 limits assumed): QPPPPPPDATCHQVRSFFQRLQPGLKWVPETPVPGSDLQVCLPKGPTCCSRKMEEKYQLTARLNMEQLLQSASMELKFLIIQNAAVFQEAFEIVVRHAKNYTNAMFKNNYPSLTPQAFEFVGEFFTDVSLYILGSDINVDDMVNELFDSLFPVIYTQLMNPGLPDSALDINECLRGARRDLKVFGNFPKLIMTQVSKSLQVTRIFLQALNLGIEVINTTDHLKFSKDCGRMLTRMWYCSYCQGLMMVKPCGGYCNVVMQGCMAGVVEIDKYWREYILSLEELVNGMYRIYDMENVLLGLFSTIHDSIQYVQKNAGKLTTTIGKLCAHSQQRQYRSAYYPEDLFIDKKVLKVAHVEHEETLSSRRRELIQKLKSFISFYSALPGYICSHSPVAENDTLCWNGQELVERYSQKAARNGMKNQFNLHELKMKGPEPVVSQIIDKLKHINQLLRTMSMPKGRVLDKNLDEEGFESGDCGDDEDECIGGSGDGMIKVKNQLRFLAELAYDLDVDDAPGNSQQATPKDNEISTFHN

EC50 [1]: 2.59 nM
EC50 [2]: 0.98 nM
EC50 [3]: 0.52 nM
Kd [4]: 0.657 nM
koff [4]: 0.000269 s⁻¹
kon [4]: 409000 M⁻¹ s⁻¹
B1: fusion protein SEQ ID NOs: 87 and 82 (bispecific antibody, human IgG4 S228P, kappa, F234A L235A)
heavy: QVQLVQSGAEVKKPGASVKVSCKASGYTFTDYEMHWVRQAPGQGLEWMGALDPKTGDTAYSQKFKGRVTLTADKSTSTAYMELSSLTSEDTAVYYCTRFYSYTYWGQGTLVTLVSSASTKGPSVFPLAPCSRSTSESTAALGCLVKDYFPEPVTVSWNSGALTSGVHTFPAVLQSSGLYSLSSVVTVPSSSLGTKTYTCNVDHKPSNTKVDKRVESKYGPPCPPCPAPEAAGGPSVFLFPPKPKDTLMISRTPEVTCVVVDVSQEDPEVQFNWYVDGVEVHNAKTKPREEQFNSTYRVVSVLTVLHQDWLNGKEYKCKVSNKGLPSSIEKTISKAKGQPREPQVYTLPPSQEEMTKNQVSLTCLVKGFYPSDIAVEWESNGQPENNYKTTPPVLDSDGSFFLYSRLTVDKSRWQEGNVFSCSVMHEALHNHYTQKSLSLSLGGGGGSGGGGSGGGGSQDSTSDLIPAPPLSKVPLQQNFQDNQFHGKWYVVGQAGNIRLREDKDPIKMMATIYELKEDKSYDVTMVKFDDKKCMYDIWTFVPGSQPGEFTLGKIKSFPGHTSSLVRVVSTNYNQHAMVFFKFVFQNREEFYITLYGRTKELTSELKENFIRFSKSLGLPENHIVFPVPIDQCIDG
light: DVVMTQSPLSLPVTPGEPASISCRSSQSLVHSNRNTYLHWYLQKPGQSPQLLIYKVSNRFSGVPDRFSGSGSGTDFTLKISRVEAEDVGVYYCSQNTHVPPTFGQGTKLEIKRTVAAPSVFIFPPSDEQLKSGTASVVCLLNNFYPREAKVQWKVDNALQSGNSQESVTEQDSKDSTYSLSSTLTLSKADYEKHKVYACEVTHQGLSSPVTKSFNRGEC
notes: also called exemplary fusion protein
